Results as given in US20240392024A1 (SHANGHAI CELGEN BIO PHARMACEUTICAL, published 2024).
Several values for one entry are separate records, joined by “and”; a condition that tells them apart may be missing. Equal entries are not always repeated.

Assays:
[1] = target: T1, human TNFR2 on the cell membrane (human, UniProt P20333 23-461); experiment: flow cytometry on CHO-TNFR2 cells
T1 construct: whole, on cells; One molecule for all cell formats; also called TNFR2-CHO cells; CHO-TNFR2
T1 sequence (looked up): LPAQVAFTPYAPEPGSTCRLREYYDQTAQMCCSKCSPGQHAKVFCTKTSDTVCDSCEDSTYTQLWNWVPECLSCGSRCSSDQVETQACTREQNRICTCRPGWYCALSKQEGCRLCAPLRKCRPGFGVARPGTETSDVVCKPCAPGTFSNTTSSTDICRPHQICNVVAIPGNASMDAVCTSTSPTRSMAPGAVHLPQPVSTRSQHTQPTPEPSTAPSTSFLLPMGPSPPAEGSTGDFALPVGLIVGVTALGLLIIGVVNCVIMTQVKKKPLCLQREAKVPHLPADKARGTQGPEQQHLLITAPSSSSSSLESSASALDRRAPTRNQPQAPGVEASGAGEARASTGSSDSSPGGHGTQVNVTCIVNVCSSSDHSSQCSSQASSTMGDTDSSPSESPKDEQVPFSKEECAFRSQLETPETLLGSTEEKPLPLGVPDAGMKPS
Outline: (§1)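 Flow cytometry on CHO cells stably overexpressing human TNFR2, made by pcDNA3.4-TNFR2 transfection, drug selection and single-clone sorting. Cells in 96-deep-well plates were incubated with serially diluted antibodies, washed and stained with a fluorescent anti-IgG secondary antibody. Samples were read on a Beckman CytoFLEX. EC50 is reported from the dilution series.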

[2] = target: T2, TNFR2-His (Sino Biological, 10417-H08H, NP_001057.1 Met1-Asp257, with multi-histidine tag expressed on … (human, UniProt P20333 23-257)); experiment: ELISA, plate coated with TNFR2-His
T2 construct: range 1-257; Bought protein; also called recombinant human TNFR2 protein; TNFR2-His antigen; not shown: C-terminal multi-histidine tag
T2 sequence (looked up): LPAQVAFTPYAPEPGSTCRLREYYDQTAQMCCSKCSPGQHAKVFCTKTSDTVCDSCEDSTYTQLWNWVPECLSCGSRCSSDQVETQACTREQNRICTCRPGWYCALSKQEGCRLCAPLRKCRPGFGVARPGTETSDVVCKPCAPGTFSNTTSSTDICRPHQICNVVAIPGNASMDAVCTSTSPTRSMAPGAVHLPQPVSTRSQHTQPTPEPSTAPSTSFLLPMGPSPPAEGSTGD
Outline: (§2)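 ELISA on plates coated with recombinant human TNFR2 carrying a C-terminal His tag, then blocked. Serially diluted antibodies were incubated, followed by an enzyme-labelled anti-IgG secondary antibody. Plates were developed with TMB and read on a microplate reader. EC50 is reported from the dilution series.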

[3] = target: T2, TNFR2-His (Sino Biological, 10417-H08H, …); experiment: BLI, antibody captured on AHC probe, TNFR2-His in solution
Outline: (§3)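 Kon, koff and Kd were derived from kinetic association measurements by bio-layer interferometry on an Octet in Basic Kinetics mode. Antibody-capture sensors held antibodies at 50 nM in Q buffer (10 mM PBS pH 7.4, 0.02% Tween 20, 0.2% BSA). These sensors were then placed in recombinant human TNFR2, diluted 2-fold in Q buffer from a top concentration of 100 nM.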

[4] = target: T2, TNFR2-His (Sino Biological, 10417-H08H, …); experiment: ELISA, coated TNFR2-His
Outline: as §2

[5] = target: T1, human TNFR2 on the cell membrane; experiment: flow cytometry, CHO-TNFR2 cells
Outline: as §1

[6] = target: T2, TNFR2-His (Sino Biological, 10417-H08H, …); experiment: BLI, antibody captured on AHC probe, TNFR2 in solution
Outline: as §3

[7] = target: T2, TNFR2-His (Sino Biological, 10417-H08H, …); experiment: ELISA, plate coated with TNFR2-His (second test)
Outline: as §2

[8] = target: T1, human TNFR2 on the cell membrane; experiment: flow cytometry on CHO-TNFR2 cells; remark: listed apart in the source
Outline: as §1

[9] = target: T3, recombinant human TNFR2 antigen (Kangdai, batch number A100114U) (human, UniProt P20333 23-257); experiment: ELISA, coated recombinant human TNFR2
T3 construct: also called hTNFR2; TNFR2-FC (Shanghai Saijin Biopharmaceutical Co., Ltd., Qiangke, catalog number A100114U); not shown: Fc part of the bought TNFR2-FC
T3 sequence (looked up): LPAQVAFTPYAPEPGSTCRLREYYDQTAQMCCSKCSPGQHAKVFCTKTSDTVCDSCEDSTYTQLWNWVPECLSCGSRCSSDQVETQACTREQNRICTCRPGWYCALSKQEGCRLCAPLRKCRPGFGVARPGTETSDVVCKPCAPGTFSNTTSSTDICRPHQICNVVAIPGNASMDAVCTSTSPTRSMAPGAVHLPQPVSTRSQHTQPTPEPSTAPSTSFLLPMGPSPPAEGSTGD
Description: (§4) After TMB development, the detection was performed using microplate reader: dual wavelength 450 nm/655 nm detection, and results were calculated by OD₄₅₀-OD₆₅₅.

[10] = target: T3, recombinant human TNFR2 antigen …; experiment: ELISA, plate coated with recombinant human TNFR2 antigen
Description: as §4

[11] = target: T4, recombinant cynomolgus monkey TNFR2 (Cyno. TNFR2) (Sino Biological, 90102-C021) (cynomolgus monkey, UniProt A0A2K5VET2 132-366); experiment: ELISA, plate coated with recombinant cynomolgus monkey TNFR2
T4 sequence: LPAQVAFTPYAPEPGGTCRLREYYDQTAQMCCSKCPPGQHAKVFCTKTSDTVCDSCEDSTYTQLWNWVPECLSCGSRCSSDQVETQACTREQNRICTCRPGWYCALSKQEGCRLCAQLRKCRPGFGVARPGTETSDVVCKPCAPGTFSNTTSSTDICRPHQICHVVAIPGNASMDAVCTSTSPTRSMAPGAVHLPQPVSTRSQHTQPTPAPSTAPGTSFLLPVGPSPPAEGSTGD
Description: as §4
Using the same method as above, the TNFR2 antigens of cynomolgus monkey and mouse (Sino Biological, 90102-C021 and 50128-M08H) were coated separately. The anti-human TNFR2 mouse monoclonal antibodies to be tested were gradient diluted, then added with the anti-mouse Fab segment secondary antibody (Jackson Immuno Research, 515-035-072), and TMB development was performed. ELISA was used to detect the binding of 8 strains of mouse monoclonal antibodies to recombinant mouse TNFR2 (mTNFR2) and cynomolgus monkey TNFR2 (Cyno. TNFR2).

| Binder | Kd [6] | koff [6] | kon [6] | EC50 [7] | EC50 [8] | further results |
| --- | --- | --- | --- | --- | --- | --- |
| 33C12huVH3 + huVL3(P07304) (antibody, V domains shown, Humanized 33C12) VH: EVQLVESGGGLVKPGGSLRLSCAASGFTFSDYTMSWVRQAPGKGLEWVATISTGGSYTYYADSVKGRFTISRDNAKNSLYLQMNSLRAEDTAVYYCARDGGYDGDYFDYWGQGTTVTVSS VL: EIVLTQSPATLSLSPGERATLSCRASSSVSSSYLHWYQQKPGQAPRLLIYRTSNLATGIPDRFSGSGSGTDFTLTISRLEPEDFAVYYCQQYSGYPLTFGGGTKLEIK | – | – | – | – | – | EC50 [1]: 0.161 µg/mL; EC50 [2]: 0.0528 µg/mL; Kd [3]: 48.7 nM; koff [3]: 0.00368 s⁻¹; kon [3]: 75600 M⁻¹ s⁻¹; EC50 [4]: 0.354 nM; EC50 [5]: 1.08 nM |
| 12E12-huVH6 + huVL2(P08937) (antibody, V domains shown, Humanized 12E12) VH: QVQLVQSGAEVKKPGASVKVSCKASGYTITDFYIHWVRQAPGQGLEWIGRVDPEDGNTEYAPNFQDRATMTTDTSTSTAYLELSSLRSEDTAVYYCSTWDGFSYFDYWGQGTTVTVSS VL: QAVVTQEPSLTVSPGGTVTLTCRSSTGPVTTNNYANWVQQKPGQAFRGLIGGTNDRAPGVPARFSGSLLGGKAALTLSGAQPEDEAEYYCALWYRNHWVFGGGTKLTVL | 5.28 nM | 0.00449 s⁻¹ | 849000 M⁻¹ s⁻¹ | 0.0322 µg/mL and 0.216 nM | 0.0096 µg/mL and 0.064 nM | – |
| 12E12-huVH7 + huVL2(P08938) (antibody, V domains shown, Humanized 12E12) VH: QVQLVQSGAEVKKPGASVKVSCKASGYTITDFYIHWVRQAPGKGLEWMGRVDPEDGNTEYAQKFQGRVTMTTDTSTDTAYMELSSLRSEDTAVYYCSTWDGFSYFDYWGQGTTVTVSS VL: QAVVTQEPSLTVSPGGTVTLTCRSSTGPVTTNNYANWVQQKPGQAFRGLIGGTNDRAPGVPARFSGSLLGGKAALTLSGAQPEDEAEYYCALWYRNHWVFGGGTKLTVL | 1.7 nM | 0.00183 s⁻¹ | 1.08e+06 M⁻¹ s⁻¹ | 0.0262 µg/mL and 0.176 nM | 0.0587 µg/mL and 0.394 nM | – |
| 12E12-huVH7 + huVL4(P08941) (antibody, V domains shown, Humanized 12E12) VH: QVQLVQSGAEVKKPGASVKVSCKASGYTITDFYIHWVRQAPGKGLEWMGRVDPEDGNTEYAQKFQGRVTMTTDTSTDTAYMELSSLRSEDTAVYYCSTWDGFSYFDYWGQGTTVTVSS VL: EAVVTQSPATLSLSPGERATLSCRSSTGPVTTNNYANWVQQKPGQAFRGLIGGTNDRAPGIPARFSGSGSGTDTTLTISSLQPEDFAVYYCALWYRNHWVFGGGTKLEIK | 2.8 nM | 0.0035 s⁻¹ | 1.25e+06 M⁻¹ s⁻¹ | 0.0273 µg/mL and 0.183 nM | 0.0217 µg/mL and 0.145 nM | – |
| 12E12-huVH8 + huVL4(P08942) (antibody, V domains shown, Humanized 12E12) VH: EVQLVQSGAEVKKPGATVKISCKVSGYTITDFYIHWVQQAPGKGLEWMGRVDPEDGNTEYAPNFQDRVTITADTSTDTAYMELSSLRSEDTAVYYCSTWDGFSYFDYWGQGTTVTVSS VL: EAVVTQSPATLSLSPGERATLSCRSSTGPVTTNNYANWVQQKPGQAFRGLIGGTNDRAPGIPARFSGSGSGTDTTLTISSLQPEDFAVYYCALWYRNHWVFGGGTKLEIK | 3.25 nM | 0.00437 s⁻¹ | 1.34e+06 M⁻¹ s⁻¹ | 0.0353 µg/mL and 0.237 nM | 0.0129 µg/mL and 0.087 nM | – |
| 12E12-huVH6 + huVL4(P08940) (antibody, V domains shown, Humanized 12E12) VH: QVQLVQSGAEVKKPGASVKVSCKASGYTITDFYIHWVRQAPGQGLEWIGRVDPEDGNTEYAPNFQDRATMTTDTSTSTAYLELSSLRSEDTAVYYCSTWDGFSYFDYWGQGTTVTVSS VL: EAVVTQSPATLSLSPGERATLSCRSSTGPVTTNNYANWVQQKPGQAFRGLIGGTNDRAPGIPARFSGSGSGTDTTLTISSLQPEDFAVYYCALWYRNHWVFGGGTKLEIK | 4.03 nM | 0.0034 s⁻¹ | 844000 M⁻¹ s⁻¹ | 0.0279 µg/mL and 0.187 nM | 0.011 µg/mL and 0.073 nM | – |
| 12E12-huVH8 + huVL2(P08939) (antibody, V domains shown, Humanized 12E12) VH: EVQLVQSGAEVKKPGATVKISCKVSGYTITDFYIHWVQQAPGKGLEWMGRVDPEDGNTEYAPNFQDRVTITADTSTDTAYMELSSLRSEDTAVYYCSTWDGFSYFDYWGQGTTVTVSS VL: QAVVTQEPSLTVSPGGTVTLTCRSSTGPVTTNNYANWVQQKPGQAFRGLIGGTNDRAPGVPARFSGSLLGGKAALTLSGAQPEDEAEYYCALWYRNHWVFGGGTKLTVL | 3.92 nM | 0.00442 s⁻¹ | 1.13e+06 M⁻¹ s⁻¹ | 0.0284 µg/mL and 0.19 nM | 0.0158 µg/mL and 0.106 nM | – |
| anti-human TNFR2 mouse monoclonal antibody 18A2 (antibody, V domains shown, also called 18A12) VH: DVQLQESGPGLVKPSQSLSLTCSVTGYSITSGYYWNWIRQFPGNKLEWMGYISYDGSNNYNPSLKKRISITRDTSKNQFFLKLNSVTTEDTATYYCTGGSGTSWGQGTLVTVSA VL: DIVMTQSHKFMSTSVGDRVSITCKASQDVTTGIAWYQQKPGQSPKLLIYSASNRFTGVPDRFTGSGSGTDFTFTISSVQAEDLAVYFCQQHYSTPFTFGSGTKLEIQ | – | – | – | – | – | EC50 [9]: 0.0465 µg/mL; EC50 [10]: 0.312 nM; EC50 [11]: > 1 µg/mL and > 6.7 nM |
